# From the nanobody polyreactivity screen of Harvey et al. (2022)
# Test: yeast display, Sf9 membrane polyspecificity reagent, FACS + sequencing; frameworks hold sequencing errors
# Summary of the method: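 Using colony PCR, genes from sorted yeast display clones were amplified, then sequenced on MiSeq at 2 × 250 and filtered by CDR length. The clones had been stained with 10% biotinylated, detergent-solubilized Sf9 membrane reagent for 1 hour at 4 °C and sorted by FACS into low and high (top ~1%) gates on anti-HA and streptavidin fluorescence. Polyreactivity labels come from the gate of origin.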
row,Sequence,polyreactivity (PSR sort gate)
1,QVQLVESAGGLVQAGGSLRLSCAASGSTFQDYVMGWYRQAPGKERELVAAISRSGGSTYYADSVKGRFTISRDNAKNTVYLQMNSLKPEDTAVYYCAAQQYTYFVPFLTYGEYDYWGQGTQVTVSS,low polyreactivity
2,QVQLVESAGGLVQAGGSLRLSCAASGSTFQYYAMGWYRLAPGKDRELVATITLIAGSTYADSVKGRFTISRDNAKNTVYLQMNSLNPEDTEVYYCAADDGGYETPELLYGGRGDDWGQGTQVTVSS,low polyreactivity
3,QVQLVESAGGLVQAGGSLRLSCAASGSTFYPYAIGWYRQAPGKERELVAAISSGGSTYYADSVKGRFTISRDNAKNTVYLQMNSLKPEDTAVYYCAADFYYAYYWGQGTQVTVSS,low polyreactivity
4,QVQLVESAGGLVQAGGSLRLSCAASGYIFGVYAMGWYRQAPGKERELVAAISYGVGSTYYADSVKGRFTISRDNAKNTVYLQMNSLKPEDTAVYYCASDVFFYVYEAYLLYYWGQGTQVTVSS,low polyreactivity
5,QVQLVESAGGLVQAGGSLRLSCAASGYIFWENAMGWYRQAPGKERELVAAITVSGGGTYYADSVKGRFTISRDNAKNTVYLQMNSLKPEDTAVYYCAADEDNPWLWFYYWGHGTQVTVSS,low polyreactivity
6,QVQLVESAGGLVQAGGSLRLSCAATGRTFYVNAMGWYRQAPGKERELVAAISSGDSSTYYADSVKGRFTSSRDNAKNTVYLQMNSLKPEDTAVYYCAAEVWVYFEYEYWGQGTQVTVSS,high polyreactivity
7,QVQLVESAGGLVQAGGSLRLSCAPSGRIFYYNAMGWYRQAPGKERELVAAITSGGSTNYADSVKGRFTISRDNAKNTVYLQMNSLKPEDTAVYYCAADYYFYVAGVHYDYWGQGTQVTVSS,low polyreactivity
8,QVQLVESAGGLVQAGGSLRLSCAPSGSTFNYYAMGWYRQAPGKESELGAAIDWSGGSTYYADSVKGRFTISRDNAKNTVYLQMNSLKPDDTAVYYCAARTYDYSYGSFDYWGQGTQVTVSS,low polyreactivity
9,QVQLVESAGGLVQAGGSLRLSCDASGRTFPYNAMGWYRQAHGKERELVAGITGGGSTYYADSVKGRFTISRDNAKNNVYLQMNSLKPEDTAVYYCAADRYFLYATYPDVEFNYWGQGTQVTVSS,high polyreactivity
10,QVQLVESAGGLVQAGGSLRLSCDASGSIFTTNAMGWYRQAPGKERELVAAITSTAGSTYYADSVKGRFKISRDNAKNTVYLQMNSLKPEDTAVYYCAATYNVGVKAWYDYWGQGSQVTVSS,high polyreactivity
11,QVQLVESAGGLVQAGGSLRLSCDASVSTFGYYAMGWYRQAPGKERELVAVIRRGGSTNYADSVKGRFTISRDNAKNTVYLQMNSLKPEDTAVYYCAKSQRGTVYSYYYWGQGNQVTVSS,high polyreactivity
12,QVQLVESAGGLVQAGGSLRLSCGASGRIFYYNTMGWYRQAPGKERELVAAITTNGGSTYYADSVKGRFTISRDNAKNTVYLQMYSLKPEDTAVYYCNRDRYPYYYAYNYWGQGTQVTVSS,low polyreactivity
13,QVQLVESAGGLVQAGGSLRLSCPASGSTFTFNAMGWYRQAPGKERELVADITSGGRTNYADSVKGRFTISRDNAKNTVYLQMNSLKPEDTAVYYCAARWWAHEYPGYDSWGQGTQVTVSS,low polyreactivity
14,QVQLVESAGGLVQAGGSLRLSFAASGRISGRYAMRWYRQAPGKEREVVAAITSRGGRTYYADSVKGRFTISRDNAKNTVYLQMNSLKPEDTAVYYCAKDAGSRTVREFGYWGQGTHVTVSS,high polyreactivity
15,QVQLVESAGGLVQAGGSLRLSSAASGIIFSEYAMGWYRPAPGKERELVAAISKSGGRTYYADSVKGRFTISGVNAKNTVDLQMNSLKPEDTAVYYCAARHAPILGDHGMKYWGQGTQVTVSS,high polyreactivity
16,QVQLVESAGGLVQAGGSLRLSSAASGRTFIVYAMGWYRQARGKERELVAGITRGSTNYADSVKGRFTISRDNAKNTVYVQMNCLKPEDTAVYYCAARWQWLNGYYYWGQGTQVTVSS,high polyreactivity
17,QVQLVESAGGLVQAGGSLSIICAASGFTFYGYTMGWYRQAPGKERELVAAITSDGDTNYADSVKGRFTISRDNAKNTVYLQMISLKPVDTAVYYCNADPGYYFYWWPGDYWGQGTQLTVSS,low polyreactivity
18,QVQLVESAGGLVQAGGSLSLICAASGFIFDSYAMGWSRQAPGKERELVAAIDKRGGRTYYADSEKGRFTISRDNAKNTVYLQMNSLKPEDTAVYFCAADDYTGYGYWGQGTQVTVSS,high polyreactivity
19,QVQLVESAGGLVQAGGSLSLSCAASGSIFWSYAMGWYRQAPGKERELVAVINWSGGSTYYADSVKGRFTISRDNAKNTVYLQMNSLKPEDTAVYYCNKDLGPTKRPFTFDYWGQGTQVTVSS,low polyreactivity
20,QVQLVESAGGLVQAGGSLSLSCAATGFIFYYNTMGWYRQAPGKERELVAAINSGGSTYYADSVKGRFTISRDNAKNTVYLQMNSLKPEDTAVYYCAKRYAVSSRYYYWGQGTQVTVSS,high polyreactivity
21,QVQLVESAGGLVQARGSLRLSCAASGRIFDVNAMGWYRQAPGKERELVAAISSGGNTKYADSVKGRFTISRDNAKNTVYLQMNSLKPEDTAVYYCNADGKAGGDSDYWGQGTQVTVSS,low polyreactivity
22,QVQLVESAGGLVQARGSLRLSCAASGRIFVPYAMGWYRQAPGKERELVAVISRGGSTYYADSVKGRFTISRDNAKNTVYLQMNSLKPEDTAVYYCAVASKLALQPWYDYWGQGTQVTVSS,high polyreactivity

row,Sequence,polyreactivity (PSR sort gate)
1,QVQLVESAGGLVQEGGSLSLSCAASGITLTIYVMGWYRQAPGKEREMVAAISTSGGSTYYADSVKGRFTISRDNAKNTVYLQMNSLKQEDTAVYYCNATPLRRYYGRYLMDYWGQGTQVTVSS,high polyreactivity
2,QVQLVESAGGLVQSGGSLRLSCPASGRIFYLNAQGWYRQAPGKERELVAAITWSGGRTYYADSVKGRFTISRDYAKNSVYLQMNSLKPEDTAVYYCAAVPRPGPNTVLTPYGYWGQGTQVTVSS,high polyreactivity
3,QVQLVESAVGLVQAGGSLRLSSAASGFTFPLYAMGWYRQEHGKEREFVPVISRSGGSTYYADSVKGRFTISRDNAKNTVYLQMNSLKPEDTAVYYCAARLVPRSPERGNYDYWGQGTQVTVSS,high polyreactivity
4,QVQLVESCAGLVQAGGSLRLTCADSGSIFDFNAMGWYRQVPGKEREWVAAITSGGSTNYADSVKGRFTNSRDNAKNTVYLQMNSLKPEDTAVYYCAARPARGASQGGYVRPWWYDSWGQGTQVTVSS,low polyreactivity
5,QVQLVESCGALVQAGGSLLLSCAASGRTFVVNDMGWYRHAPWKERELVATINVSGGSTSYEDSVKGRFTISRDNGKYTVYLQMTSLKPEDTAVYYCNVDTYVEYPHDYWGQGTQVTVSS,low polyreactivity
6,QVQLVESCGCLVQAGGSLRLSCAASGSTFRKYAMGWYRQAPGKEREFVAAITWSTGTTYYADSVKGRFTISRDNAKNTVYLQMNSLKPEDTAVYYCAADSQPPHELYESIEHESWGQGTQVTVSS,low polyreactivity
7,QVQLVESCGGFVQAGGSLSLSCAASGSIYGRYGMGWYIQAPGKERELVAAITSGTRTNYADSVKGRFTISRDNAKNTVYLQMKSLKPEDTAVYYCYALRLRGNYEYGYWGQGTQVTVSS,low polyreactivity
8,QVQLVESCGGIVQAGGSHRLSCAASGSIFAWYAMGWYRQAPGKERELVAAITYTGGRTYYADSVKGRFTISRDIAKYTVYLQMISLNPEDTAVFYCAKDGPATVRRGYDYWGQGTQVTVSS,high polyreactivity
9,QVQLVESCGGLDQAGGSLRLSCAASALTFVDNAMGWYRQAPGKERELVAAISYNGGSTYYADSVKGRFTISRDNAKNTVYLQMNCLKPEDTAVYYCAADISVGRYGDMDYWGQGTLVTVSS,low polyreactivity
10,QVQLVESCGGLGQAGGSLRLSCSASGRIFGTYAKGLYRKAPGKERELLASISYSDGSTYADSVKGRFTISRDNAKNTVYLQMNSLKPEDTSVYYCAADVYYYAQSEDGYWGQGTQVTVSS,low polyreactivity
11,QVQLVESCGGLLQAGGSLRLSCAASGRTFTQYAMGCYRQAPGKERELVAAISWSDDITYYADSVKGRCTISRDIAQYTVYLQMNSLKPEDTAVYYCATEGYWGYDYDYWGQGTQVTVSS,high polyreactivity
12,QVQLVESCGGLVHAGGSLRLSCAASGRIIIFYAMGWYRQAPGKERELVASITSGASTYADSVKGRFTISRDNAKNTVYLQLNSLKPEDTAVYYCAKDYLDATPWFTWPTYSEFDYWGQGTQVTVSS,low polyreactivity
13,QVQLVESCGGLVPAGGSLRLSCAASGSTFRYAMGWYRQTPGKERELVDAITRSGGSTYYAYSVKVRFTISRDKAKNTVYLQMNSLKPEDTAVYYCNARRGKGKSYGDYGYGYWGQGTQVTVSS,high polyreactivity
14,QVQLVESCGGLVQAGCSLRLSCAASGSIRYYPMGWYRQAPGKERELVAGITRNGGSTYYADSVKGRFTISRDNAKITVYLQMNSLKPEDTAVYYFAAGFTTRRGEYNYWGQGTQVTVSS,high polyreactivity
15,QVQLVESCGGLVQAGGSLRLICAASGITFYRNAMGGYRQAPWKERELVAAITRRGGSTYYADSVKGRFTISRDNAKNTVYCQMNIVKPEDTAVYYCAAQDATRGDGYWGQGTQVTVSS,high polyreactivity
16,QVQLVESCGGLVQAGGSLRLSCAASAWYAIGWYRQAPGKEREFVAAITFSGSSTYYADSVKGRFTISRDNAKNTVYLQMNSLKPEDTAVYYCNADWWEWGQGTQVTVSS,low polyreactivity
17,QVQLVESCGGLVQAGGSLRLSCAASGFTFGSYDMGWYRQAPGKERELVAAITWSGGSTYYADSVKGRFTISRDNAKNTVYLQMNSLKPEDTAVYYCNAYKFHMNYWGQGTQVTVSS,high polyreactivity
18,QVQLVESCGGLVQAGGSLRLSCAASGIIFPPYAMGWYRPAPGKERELVAAITRSGASTYYADSVKGRFTISRDNAKNTVYLQMNSLKPEDTAVYYCAVGVPGGYWKDYYWGQGTQVTVSS,high polyreactivity
19,QVQLVESCGGLVQAGGSLRLSCAASGITFYGYAMGWYIQAPGKERELVARITISGRTNYADYVKGRFTISRDNAKNTVYLQMNSLKPEDTAVYYCATLVHWSYPYYYWGQGTQVTVSS,high polyreactivity
20,QVQLVESCGGLVQAGGSLRLSCAASGLTFPKYAMGWYRQAPGKERELVARISYSGASTYYADSVKGRFTISRDNAKNTVYLQMNSLKPEDTAVYYCAARIYRVYYVHFAPYYYWGQGTQVTVSS,high polyreactivity
21,QVQLVESCGGLVQAGGSLRLSCAASGRIFLYNAMGWYRQAPGKERELVAVISRNGGSTYYADSVKGRFTISRDNAKNTVYLQMNSLKPEDTAVYYCNRYDRLAGRTTYDYWGQGSQVTVSS,high polyreactivity
